Assay results taken from patent US20240181022A1, “AMURINS LYSINS, AND LYSIN-ANTIMICROBIAL PEPTIDE (AMP) CONSTRUCTS ACTIVE AGAINST GRAM-NEGATIVE BACTERIA” (priority 2021, published 2024).
Where “and” joins values, the source holds several entries; their conditions need not be identical. Identical values can stand only once. Like-named read-outs stand apart in the source and are kept apart here.

Columns and labels:
Citrobacter freundii = assay: MIC by broth microdilution against Citrobacter freundii; type: cell-based; conditions: N 2
Procedure: (§1) MIC values were determined by broth microdilution against clinical isolates and resistant isolates from a wide range of bacterial species, including isolates from the CDC Antibiotic Resistance bank, including the GN ESKAPE pathogens and E. coli, including carbapenem-resistant Enterobacteriaciae, Acinetobacter, and Pseudomonas.

[1] = system: Raoultella ornithinolytica; assay: MIC by broth microdilution against Raoultella ornithinolytica; type: cell-based; conditions: N 1
Procedure: as §1

K. pneumoniae [2] = assay: MBEC against K. pneumoniae biofilm; type: cell-based, Klebsiella pneumoniae; conditions: MDR and XDR K. pneumoniae (11)
K. pneumoniae [3] = assay: GN370 time-kill assay, K. pneumoniae; type: cell-based, Klebsiella pneumoniae; conditions: for Log10 CFU/mL: K. pneumoniae ATCC 700603
Procedure: (§2) A kinetic analysis of GN370 bactericidal activity was performed using a time-kill assay format in which CFU reductions of each target organism (P. aeruginosa, K. pneumoniae, A. baumannii, E. coli, and E. cloacae) were measured over 24 hours at 37° C. […] Bactericidal activity was defined as CFU reductions of ≥3-log 10 CFU/mL as compared to the inoculum at the 24-hour time point.

K. pneumoniae [4] = assay: MIC by broth microdilution against K. pneumoniae; type: cell-based, Klebsiella pneumoniae
[5] = system: K. pneumoniae (1_1_5 HM-44); assay: microbe, parasite or virus in culture; type: cell-based, Klebsiella pneumoniae
P. aeruginosa [6] = assay: Checkerboard synergy assay (FICI) with antibiotics against P. aeruginosa; type: cell-based, Pseudomonas aeruginosa; design: key to average FICI score with amikacin: FICI: ≤0.5 synergy, >0.5–≤1 additive, >1 indifferent; conditions: for MIC (dual agent): GN370 + meropenem
Summary of the method: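 Checkerboard of 2-fold antibiotic dilutions crossed with GN370 (lysin peptide), bacteria at 1×10^5 CFU/ml in CAA, with or without human serum or pulmonary surfactant. ΣFICmin taken as FICI: ≤0.5 synergy, >0.5–≤1 additive, >1 indifferent.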

P. aeruginosa [7] = assay: SEM and TEM imaging of membrane damage; type: cell-based, Pseudomonas aeruginosa; conditions: prior to pore formation and lysis
Procedure: Additionally, the mechanism of action of both the Chp peptides and the lysins and/or lysin-AMP constructs disclosed herein may be evaluated through the use of Scanning Electron Microscopy (SEM) and Transmission Electron Microscopy (TEM) techniques. Due to the rapid permeabilization and depolarization of bacterial membranes when contacted with Chp peptides, as discussed above, membrane damage may be visualized through SEM and TEM. […] TEM and SEM images taken approximately 2 minutes after Chp peptide (8 μg/mL) contact with P. aeruginosa show the formation of multiple bulges on the bacterial membrane, as well as the appearance of pore formation and degradation of the cellular membrane. TEM and SEM images taken approximately 5 minutes after Chp peptide (8 μg/mL) contact with P. aeruginosa show continued formation of membrane bulges, along with degradation of the cellular membrane, condensation of electron-dense cytoplasmic material, formation of spheroplasts, and pore formation. TEM and SEM images taken approximately 20 minutes after Chp peptide (8 μg/mL) contact with P. aeruginosa show multiple instances of pore formation and the appearance of ghost cells, empty of intracellular content.

P. aeruginosa [8] = assay: GN370 time-kill assay, P. aeruginosa; type: cell-based, Pseudomonas aeruginosa; conditions: for Log10 CFU/mL: P. aeruginosa PA25
Procedure: as §2

[9] = Klebsiella pneumoniae, AR Bank, N 32
[10] = Klebsiella pneumoniae, Weill Cornell, N 9
[11] = Klebsiella pneumoniae, all isolates, N 41
[12] = P. aeruginosa (ATCC 27853, CFS 1766)
[13] = P. aeruginosa (ATCC 27853, CFS 1766), GN370 with meropenem
[14] = P. aeruginosa (CFS 2045), GN370 with meropenem
[15] = P. aeruginosa (CFS 2061), GN370 with meropenem
[16] = P. aeruginosa strain AR-769, GN370 with Amikacin
[17] = P. aeruginosa strain AR-769, GN370 with Cefepime
[18] = P. aeruginosa strain AR-769, GN370 with Ceftazidime
[19] = P. aeruginosa strain AR-769, GN370 with Ciprofloxacin
[20] = P. aeruginosa strain AR-769, GN370 with Colistin
[21] = P. aeruginosa strain AR-769, GN370 with Meropenem
[22] = P. aeruginosa strain AR-769, GN370 with Tobramycin
[23] = P. aeruginosa strain AR-769, in combination with Amikacin
[24] = P. aeruginosa strain AR-769, in combination with Cefepime
[25] = P. aeruginosa strain AR-769, in combination with Ceftazidime
[26] = P. aeruginosa strain AR-769, in combination with Ciprofloxacin
[27] = P. aeruginosa strain AR-769, in combination with Meropenem
[28] = P. aeruginosa strain AR-769, in combination with Tobramycin

B1: GN370: lysin-AMP construct, SEQ ID NO: 149: MIDR, FIRL and NPTH moieties N-terminal to GN202 lysin (protein)
chain: MIDRFIRLNPTHGPRRPRRPGRRAPVRTSQRGIDLIKSFEGLRLSAYQDSVGVWTIGYGTTRGVTRYMTITVEQAERMLSNDIQRFEPELDRLAKVPLNQNQWDALMSFVYNLGAANLASSTLLDLLNKGDYQGAADQFPHWVNAGGKRLDGLVKRRAAERALFLEPLS
modifications: GN370 lysin
For B1, the “MIC Range” value (Citrobacter freundii) was 0.5 to 2 µg/mL, the “MIC Range” value [1] was 0.25 µg/mL and the MBEC50 (K. pneumoniae [2]) was 1 µg/mL. For the same molecule, the MBEC90 (K. pneumoniae [2]) was 2 µg/mL, the “MBEC Range” value (K. pneumoniae [2]) was 0.5 to 4 µg/mL and the “Number of isolates at MBEC 0.5 μg/mL” value (K. pneumoniae [2]) was 3. For the same molecule, the “Number of isolates at MBEC 1 μg/mL” value (K. pneumoniae [2]) was 3, the “Number of isolates at MBEC 2 μg/mL” value (K. pneumoniae [2]) was 4 and the “Number of isolates at MBEC 4 μg/mL” value (K. pneumoniae [2]) was 1. For the same molecule, the “Log10 CFU/mL” value (K. pneumoniae [3]; 0.2x MIC, 1 hr) was 5.2 Log10 CFU/mL, the “Log10 CFU/mL” value (K. pneumoniae [3]; 0.2x MIC, 3 hr) was 5.0 Log10 CFU/mL and the “Log10 CFU/mL” value (K. pneumoniae [3]; 0.2x MIC, 24 hr) was 8.5 Log10 CFU/mL. For the same molecule, the “Log10 CFU/mL” value (K. pneumoniae [3]; 1x MIC, 1 hr) was 2.0 Log10 CFU/mL, the “Log10 CFU/mL” value (K. pneumoniae [3]; 1x MIC, 3 hr) was 1.5 Log10 CFU/mL and the “Log10 CFU/mL” value (K. pneumoniae [3]; 1x MIC, 24 hr) was 1.5 Log10 CFU/mL. For the same molecule, the “Log10 CFU/mL” value (K. pneumoniae [3]; 2x MIC, 1 hr) was 1.5 Log10 CFU/mL, the “Log10 CFU/mL” value (K. pneumoniae [3]; 2x MIC, 3 hr) was 1.5 Log10 CFU/mL and the “Log10 CFU/mL” value (K. pneumoniae [3]; 2x MIC, 24 hr) was 1.5 Log10 CFU/mL. The “Log10 CFU/mL” value (K. pneumoniae [3]; 5x MIC, 1 hr) was 1.5 Log10 CFU/mL, the “Log10 CFU/mL” value (K. pneumoniae [3]; 5x MIC, 3 hr) was 1.5 Log10 CFU/mL and the “Log10 CFU/mL” value (K. pneumoniae [3]; 5x MIC, 24 hr) was 1.5 Log10 CFU/mL. For the same molecule, the “concentration with bactericidal activity (≥3-log 10 CFU/mL reduction at 24 hours)” value (K. pneumoniae [3]; K. pneumoniae, 37° C.) was ≥ 1 ×MIC, the MIC (K. pneumoniae [4]; K. pneumoniae ATCC 700603) was “(MIC = 4 μg/mL)” and the MIC (K. pneumoniae [4]; K. pneumoniae HM-44 (head of Table 19)) was 4 µg/mL. It also gave an MIC90 (K. pneumoniae [4]; K. pneumoniae clinical and resistant isolates) of 4 µg/mL, an MIC50 (K. pneumoniae [4]; [9]) of 1 µg/mL and an MIC90 (K. pneumoniae [4]; [9]) of 4 µg/mL. For the same molecule, the “MIC Range” value (K. pneumoniae [4]; [9]) was 0.125 to 4 µg/mL, the MIC50 (K. pneumoniae [4]; [10]) was 2 µg/mL and the MIC90 (K. pneumoniae [4]; [10]) was 4 µg/mL. The “MIC Range” value (K. pneumoniae [4]; [10]) was 0.25 to 4 µg/mL, the MIC50 (K. pneumoniae [4]; [11]) was 2 µg/mL and the MIC90 (K. pneumoniae [4]; [11]) was 4 µg/mL. The “MIC Range” value (K. pneumoniae [4]; [11]) was 0.125 to 4 µg/mL, the MIC ([5]; K. pneumoniae 1_1_5_HM-44, target organism of serial passage study) was 2 µg/mL and the “change in MIC over 28-day serial passage” value ([5]; K. pneumoniae (1_1_5 HM-44)) was ≤ 2 fold. For the same molecule, the “change in MIC over 28-day serial passage” value ([5]; K. pneumoniae, another instance) was “no change”, the “GN370 FIC” value (P. aeruginosa [6]) was 0.125 and the synergy with meropenem (P. aeruginosa [6]; 3 strains of P. aeruginosa) was “synergizes with meropenem against P. aeruginosa”. The MIC (alone) (P. aeruginosa [6]; [12]) was 1 µg/mL, the MIC (dual agent) (P. aeruginosa [6]; [12]) was 0.06 µg/mL and the FICmin (P. aeruginosa [6]; [13]) was 0.091. For the same molecule, the FICmin interpretation (P. aeruginosa [6]; [13]) was “(Synergy)”, the MIC (alone) (P. aeruginosa [6]; P. aeruginosa (CFS 2045)) was 2 µg/mL and the MIC (dual agent) (P. aeruginosa [6]; P. aeruginosa (CFS 2045)) was 0.06 µg/mL. The FICmin (P. aeruginosa [6]; [14]) was 0.155, the FICmin interpretation (P. aeruginosa [6]; [14]) was “(Synergy)” and the MIC (alone) (P. aeruginosa [6]; P. aeruginosa (CFS 2061)) was 4 µg/mL. For the same molecule, the MIC (dual agent) (P. aeruginosa [6]; P. aeruginosa (CFS 2061)) was 0.25 µg/mL, the FICmin (P. aeruginosa [6]; [15]) was 0.125 and the FICmin interpretation (P. aeruginosa [6]; [15]) was “(Synergy)”. It also gave a GN370 MIC (single agent) (P. aeruginosa [6]; P. aeruginosa strain AR-769) of 2 µg/mL, an FICave (P. aeruginosa [6]; [16]) of 0.323 and an FICmin (P. aeruginosa [6]; [16]) of 0.281. For the same molecule, the FICave (P. aeruginosa [6]; [17]) was 0.542 and 0.419, the FICmin (P. aeruginosa [6]; [17]) was 0.5 and 0.375 and the FICave (P. aeruginosa [6]; [18]) was 1.073. For the same molecule, the FICmin (P. aeruginosa [6]; [18]) was 1.031, the FICave (P. aeruginosa [6]; [19]) was 0.543 and 0.417 and the FICmin (P. aeruginosa [6]; [19]) was 0.5 and 0.375. For the same molecule, the FICave (P. aeruginosa [6]; [20]) was 0.292, the FICmin (P. aeruginosa [6]; [20]) was 0.25 and the FICave (P. aeruginosa [6]; [21]) was 0.422 and 0.419. The FICmin (P. aeruginosa [6]; [21]) was 0.375, the FICave (P. aeruginosa [6]; [22]) was 0.418 and the FICmin (P. aeruginosa [6]; [22]) was 0.375. The “average FICI score with amikacin” value (P. aeruginosa [6]; P. aeruginosa strain AR-769, checkerboard) was 0.323, the “GN370 FIC” value (P. aeruginosa [6]; [23]) was 0.031 and the GN370 MIC (combo) (P. aeruginosa [6]; [23]) was 0.063 µg/mL. The “GN370 FIC” value (P. aeruginosa [6]; [24]) was 0.25, the GN370 MIC (combo) (P. aeruginosa [6]; [24]) was 0.5 µg/mL and the “GN370 FIC” value (P. aeruginosa [6]; [25]) was 0.031. For the same molecule, the GN370 MIC (combo) (P. aeruginosa [6]; [25]) was 0.063 µg/mL, the “GN370 FIC” value (P. aeruginosa [6]; [26]) was 0.25 and the GN370 MIC (combo) (P. aeruginosa [6]; [26]) was 0.5 µg/mL. The GN370 MIC (combo) (P. aeruginosa [6]; P. aeruginosa strain AR-769, in combination with Colistin) was 0.25 µg/mL, the “GN370 FIC” value (P. aeruginosa [6]; [27]) was 0.25 and the GN370 MIC (combo) (P. aeruginosa [6]; [27]) was 0.5 µg/mL. For the same molecule, the “GN370 FIC” value (P. aeruginosa [6]; [28]) was 0.25, the GN370 MIC (combo) (P. aeruginosa [6]; [28]) was 0.5 µg/mL and the “membrane damage seen by TEM and SEM” value (P. aeruginosa [7]) was “more extensive and larger membrane blebs”. The “Log10 CFU/mL” value (P. aeruginosa [8]; 0.2x MIC, 1 hr) was 4.5 Log10 CFU/mL, the “Log10 CFU/mL” value (P. aeruginosa [8]; 0.2x MIC, 3 hr) was 4.7 Log10 CFU/mL and the “Log10 CFU/mL” value (P. aeruginosa [8]; 0.2x MIC, 24 hr) was 9.5 Log10 CFU/mL. For the same molecule, the “Log10 CFU/mL” value (P. aeruginosa [8]; 1x MIC, 1 hr) was 1.5 Log10 CFU/mL, the “Log10 CFU/mL” value (P. aeruginosa [8]; 1x MIC, 3 hr) was 1.5 Log10 CFU/mL and the “Log10 CFU/mL” value (P. aeruginosa [8]; 1x MIC, 24 hr) was 1.54 Log10 CFU/mL. The “Log10 CFU/mL” value (P. aeruginosa [8]; 2x MIC, 1 hr) was 1.5 Log10 CFU/mL, the “Log10 CFU/mL” value (P. aeruginosa [8]; 2x MIC, 3 hr) was 1.5 Log10 CFU/mL and the “Log10 CFU/mL” value (P. aeruginosa [8]; 2x MIC, 24 hr) was 1.5 Log10 CFU/mL. The “Log10 CFU/mL” value (P. aeruginosa [8]; 5x MIC, 1 hr) was 1.5 Log10 CFU/mL, the “Log10 CFU/mL” value (P. aeruginosa [8]; 5x MIC, 3 hr) was 1.5 Log10 CFU/mL and the “Log10 CFU/mL” value (P. aeruginosa [8]; 5x MIC, 24 hr) was 1.5 Log10 CFU/mL. The “concentration with bactericidal activity (≥3-log 10 CFU/mL reduction at 24 hours)” value (P. aeruginosa [8]; P. aeruginosa, 37° C.) was ≥ 1 ×MIC.
